Test results from patent US20260232840A1 (UNIVERSITY OF BRITISH COLUMBIA, published 2026).
Positions count from the first letter of the chain named.

B1: rabbit anti-SOD1 antibody A-7-63 H2/L1 (antibody)
heavy: QSVGESGGGLVTPGTPLTLTCTVSGFSLSSYGVSWVRQAPGKGLEYIGFISTRGNPYYASWAKGRFTISKTSTTVDLKITSPTTEDTATYFCAGATVVGDSIWGPGTLVTVSSGQPKAPSVFPLAPCCGDTPSSTVTLGCLVKGYLPEPVTVTWNSGTLTNGVRTFPSVRQSSGLYSLSSVVSVTSSSQPVTCNVAHPATNTKVDKTVAPSTCSKPTCPPPELLGGPSVFIFPPKPKDTLMISRTPEVTCVVVDVSQDDPEVQFTWYINNEQVRTARPPLREQQFNSTIRVVSTLPIAHQDWLRGKEFKCKVHNKALPAPIEKTISKARGQPLEPKVYTMGPPREELSSRSVSLTCMINGFYPSDISVEWEKNGKAEDNYKTTPAVLDSDGSYFLYSKLSVPTSEWQRGDVFTCSVMHEALHNHYTQKSISRSPGK
light: QVLTQTASSVSAAVGGTVTISCQSSQSVYKGYWQAWYQQKPGQPPKLLIYETSTLASGVPSRFSGSGSGTQFTLTISGVQCDDAATYYCAGGYSNNIYTFGGGTEVVVKGDPVAPTVLIFPPAADQVATGTVTIVCVANKYFPDVTVTWEVDGTTQTTGIENSKTPQNSADCTYNLSSTLTLTSTQYNSHKEYTCKVTQGTTSVVQSFNRGDC
notes: Rabbit monoclonal antibody; also called A-63 H2 + A-63 L1
B2: rabbit anti-SOD1 antibody A-7-63 H3/L1 (antibody)
heavy: B1 heavy with G4E
light: B1 light
notes: Rabbit monoclonal antibody; also called A-63 H3 + A-63 L1
B3: rabbit anti-SOD1 antibody A-7-58 H1/L1 (antibody, V domains shown)
VH: QSVEESGGRLVTPGTPLTLTCTVSGIDLSSSVMAWVRQAPGKGLEWIGIITNRGNRYYAKWAKGRFTISRTSTTVGLKITSPTTADTATYFCGRGSVWGPGTLVTVSS
VL: QVLTQTPASVSAAIGGTVTIKCQSSQSFLDDNDLAWYQKKPGRPPKRLIKSASTLDSGVPSRFSGSGSGTQFTLTISDVQCADAATYYCLGDYDCSVGDCSAFGGGTEVVVKG
notes: Rabbit monoclonal antibody; also called A-58 H1 + A-58 L1

Biological target: T1, aggregated SOD1 (UniProt P00441 2-154)
T1 construct: Same protein as Dim SOD1, in a different conformational state; also called Agg SOD1
Assay: indirect ELISA; ratio of the EC50 values on aggregated and dimeric SOD1
Procedure: (§1) Supernatants producing hybridoma cell cultures producing rabbit monoclonal antibodies are analyzed by indirect ELISA for antibody activity on plates coated with 1 μg/well of peptide or protein antigen. […] The binding of anti-SOD1 antibodies were also characterized by ratio analyzes.

T1 sequence (P00441 2-154 limits assumed): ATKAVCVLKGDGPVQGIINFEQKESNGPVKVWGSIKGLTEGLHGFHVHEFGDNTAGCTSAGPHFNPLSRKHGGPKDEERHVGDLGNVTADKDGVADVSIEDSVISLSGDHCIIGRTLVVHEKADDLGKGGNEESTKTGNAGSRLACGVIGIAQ

Compared with B1, B2 is higher in “Ratio Agg/Dim SOD1 EC50” value: 26.7 for the first, 32.8 for the second.

B3 was tested, and the “Ratio Agg/Dim SOD1 EC50” value was 30.4.

Biological target: T1, aggregated SOD1
Assay: indirect ELISA; OD on aggregated SOD1 over OD on dimeric SOD1
Procedure: as §1

B1 and B2 are within 1.5-fold of each other in “Ab conc (ng/mL) at peak agg/dim OD ratio” value: 6.01 ng/mL for the first, 5.11 ng/mL for the second.

In the case of B3, the “Ab conc (ng/mL) at peak agg/dim OD ratio” value is reported as 10.3 ng/mL.

First: B1
Second: B2
The “Peak agg/dim OD ratio” value of the first is lower: 10.7 for the first, 11.6 for the second.

With B3 the “Peak agg/dim OD ratio” value was 12.7.
